Results taken from patent publication US20220211018A1.

Columns and labels:
[1] = biological target: human thrombomodulin (hTBM) expressed from the B200 vector on porcine aortic endothelial cells (UniProt P07204)
collagen agonist = assay: cell-based or functional assay; conditions: scale: % more aggregation than the monoallelic vWF edit blood

UniProt P07204, sequence (P07204 whole entry, looked up): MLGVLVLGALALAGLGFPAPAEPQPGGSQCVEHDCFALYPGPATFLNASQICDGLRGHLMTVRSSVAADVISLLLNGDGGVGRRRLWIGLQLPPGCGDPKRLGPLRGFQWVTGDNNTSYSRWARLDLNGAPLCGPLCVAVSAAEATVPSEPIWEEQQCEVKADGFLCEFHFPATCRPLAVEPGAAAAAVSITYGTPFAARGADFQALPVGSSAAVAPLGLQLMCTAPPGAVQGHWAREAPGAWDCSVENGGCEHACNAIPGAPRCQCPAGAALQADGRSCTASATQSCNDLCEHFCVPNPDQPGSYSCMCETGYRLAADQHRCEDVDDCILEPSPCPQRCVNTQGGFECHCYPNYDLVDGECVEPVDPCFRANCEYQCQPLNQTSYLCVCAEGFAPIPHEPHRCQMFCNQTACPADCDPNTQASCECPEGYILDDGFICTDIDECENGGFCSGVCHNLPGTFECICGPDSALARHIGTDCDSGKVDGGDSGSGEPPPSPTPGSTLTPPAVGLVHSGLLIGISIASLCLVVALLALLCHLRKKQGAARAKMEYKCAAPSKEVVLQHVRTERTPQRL

whole blood platelet aggregation (Chrono-log Whole Blood Aggregometer) after collagen agonist (2 ug/mL) (collagen agonist)	Substance	activated protein C (APC) assay on pAEC: human thrombin and human Protein C added, Chromogenix S-2366 substrate, absorbance at 405 nm, nM APC/mg protein [1]
–	human thrombin	pAEC from a transgenic pig expressing hTBM and hEPCR from the B200 vector showed a significantly elevated APC levels when compared to GTKO transgenic pig control
50	porcine von Willebrand factor (unmodified) (from UniProt Q28833 438-2482)	–
